In patent US20150110787A1 (SAMSUNG ELECTRONICS, published 2015):
Blank lines part the entries; values can stand above or below the binder they belong to.

Experiments:
[1] = target: T1, human VEGF-C polypeptide (R&D Systems; Accession # P49767) (human, UniProt P49767 103-227, limits assumed); assay: ELISA on coated human VEGF-C (1 ug/ml), anti-HA-HRP detection; 50% binding concentration, given as Kd
T1 construct: Bought protein; also called hVEGF-C; Recombinant VEGF-C protein (R&D Systems)
T1 sequence (looked up): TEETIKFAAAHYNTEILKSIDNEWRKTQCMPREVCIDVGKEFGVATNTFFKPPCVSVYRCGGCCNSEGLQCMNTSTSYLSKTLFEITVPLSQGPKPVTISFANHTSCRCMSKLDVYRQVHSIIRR
Method: ELISA for verifying the binding affinity of the anti-VEGF-C antibody in scFv form purified in Example 2 to its antigen was carried out. MaxiSorp™ flat-bottom plate (Nunc) of 96-wells was coated with 1 μg/ml of human VEGF-C(R&D Systems) for 16 hours. The plate was then washed 5 times with phosphate buffer saline (PBS) supplemented with 0.05%(v/v) Tween-20, and then blocked with PBS supplemented with 1%(v/v) bovine serum albumin (BSA; Sigma) at room temperature for 2 hours. The anti-VEGF-C antibody in scFv form purified in Example 2 was added to each well of the plate and was incubated at room temperature for 2 hours.
The plate was washed 5 times with PBS supplemented with 0.05% (v/v) Tween-20. HRP-conjugated anti-HA antibody (HA-probe Antibody (F-7) HRP conjugated) (Santacruz) diluted with PBS supplemented with 1%(v/v) BSA was added at the dilution ratio of 1:1,000 (v/v) and was incubated at room temperature for 1 hour. The reacted well was washed 5 times with PBS supplemented with 0.1%(v/v) Tween-20. Finally, tetramethylbenzidine (TMB) substrate (Cell Signal) was added to each well of the plate at the amount of 100 μl to induce coloring reaction at room temperature for 3 minutes. Then, the reaction was stopped with 50 μl of 5N H₂SO₄ solution, and OD450 value was measured on plate reader (Molecular Devices).

[2] = target: T1, human VEGF-C polypeptide (R&D Systems; …); assay: SPR, BIAcore T100; antibody captured on anti-human Fc antibody on a CM5 chip, recombinant VEGF-C flowed from 200 nM
Method: To accurately measure the affinity of the anti-VEGF-C antibody to its antigen, VEGF-C, Surface Plasmon Resonance (SPR) method was conducted using BIAcore T100 (GE Healthcare). The SPR method is based on a principle that the refractive index of light passing through a sensor chip varied depending on the condition of the substance coated on the sensor chip. If an antibody or an antigen is flowed on the chip which is coated with an antigen or an antibody, the binding between the antigen and the antibody leads to change in refractive index, and Kd value can be calculated based on the refractive index.
25 μg/ml of anti-human Fc antibody (Sigma) was fixed on CM5 sensor chip (GE Healthcare) using pH 5.0 sodium acetate solution and amine coupling kit (GE Healthcare). 2 μg/ml of the anti-VEGF-C antibody obtained in Example 2 was added on the chip to be captured.
Recombinant VEGF-C protein (R&D Systems) was serially diluted with HBS-P (GE-Health) solution starting from the concentration of 200 nM and flowed on the chip, leading to binding (on) to and dissociating (off) from the antibody, thereby measuring the antigen-antibody affinity.

[3] = target: T2, FLAG-tagged human VEGF-C (Accession # P49767) (human, UniProt P49767 112-227, limits assumed); assay: competitive ELISA: human VEGR-R3-Fc coated, 200 ng/ml FLAG-tagged human VEGF-C plus scFv (1-1000 nM), anti-FLAG-HRP; competitor VEGR-R3-Fc
T2 construct: not shown: FLAG tag
T2 sequence (looked up): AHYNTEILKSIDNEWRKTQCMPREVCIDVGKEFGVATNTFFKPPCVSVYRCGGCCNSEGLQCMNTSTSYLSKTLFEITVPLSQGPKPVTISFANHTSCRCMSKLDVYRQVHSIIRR
Method: To examine the effect of the anti-VEGF-C antibody purified in Example 2 on the inhibition of VEGF-C:VEGR-R3 binding, a competitive ELISA, which is used for verification of molecular interaction, was performed. MaxiSorp™ flat-bottom plate (Nunc) of 96-wells was coated with […] of human VEGR-R3-Fc (R&D Systems. Accession No. P35916) which is a fusion protein composed of human VEGR-R3 and Fc of human IgG1. Thereafter, the plate was washed 5 times with phosphate buffer saline (PBS) supplemented with 0.05%(v/v) Tween-20, and then blocked with PBS supplemented with 1%(v/v) bovine serum albumin (BSA; Sigma) at room temperature for 2 hours.
To perform the VEGF-C:VEGR-R3 neutralization ELISA, the anti-VEGF-C antibody (concentration: 1 nM, 10 nM, 100 nM, or 1000 nM) purified in Example 2 was added to each well coated with the human VEGR-R3-Fc, together with a mixture of 1%(v/v) BSA and 200 ng/ml of FLAG-tagged human VEGF-C (Accession # P49767), and incubated at room temperature for 2 hours. Thereafter, the plate was washed 5 times with PBS supplemented with 0.05% (v/v) Tween-20. […] Then, the reaction was stopped by addition of 50 μl of 5N H₂SO₄ solution, and OD450 value was measured using plate reader (Molecular Devices).

[4] = target: T2, FLAG-tagged human VEGF-C (Accession # …); assay: competitive ELISA: human VEGR-R3-Fc coated, 200 ng/ml FLAG-tagged human VEGF-C plus IgG (1-1000 nM), anti-FLAG-HRP; competitor VEGR-R3-Fc
Method: MaxiSorp™ flat-bottom plate (Nunc) of 96-wells was coated with […] of human VEGR-R3-Fc (R&D Systems. Accession No. P35916) which is a protein produced by coupling human VEGR-R3 with Fc of human IgG1. Thereafter, the plate was washed 5 times with phosphate buffer saline (PBS) supplemented with 0.05%(v/v) Tween-20, and then blocked with PBS supplemented with 1%(v/v) bovine serum albumin (BSA; Sigma) at room temperature for 2 hours.
For performing the VEGF-R3:VEGF-C neutralization ELISA, the anti-VEGF-C antibody (concentration: 1 nM, 10 nM, 100 nM, or 1000 nM) in IgG form purified in Example 6 was added to each well of the human VEGR-R3-Fc coated plate, together with a mixture of 1%(v/v) BSA and 200 ng/ml of FLAG-tagged human VEGF-C (Accession # P49767), and then, the plate was reacted at room temperature for 2 hours. Thereafter, the plate was washed 5 times with PBS supplemented with 0.05% (v/v) Tween-20. HRP-conjugated anti-FLAG antibody (SIGMA) was diluted with PBS supplemented with 1%(v/v) BSA at the dilution ratio of 1:5,000 (v/v), and added to each well in the amount of 100 μl, to react at room temperature for 1 hour. The reacted well was washed 5 times with PBS supplemented with 0.1%(v/v) Tween-20. […] Then, the reaction was stopped with 50 μl of 5N H₂SO₄ solution, and OD450 value was measured on plate reader (Molecular Devices).

Kd [1]: 26.2 nM | Kd [2]: 0.345 nM | koff [2]: 0.00258 s⁻¹ | kon [2]: 7.45e+06 M⁻¹ s⁻¹ | IC50 [3]: 33.4 nM
B1: SAIT-VEGFC-AB-4A2, anti-VEGF-C antibody in scFv form purified in Example 2 (scFv, V domains shown)
VH: EVQLLESGGGLVQPGGSLRLSCAASGFTFSSYDMSWVRQAPGKGLEWVSAISYDNGSTYYADSVKGRFTISRDNSKNTLYLQMNSLRAEDTAVYYCARDPYLARLNTFDYWGQGTLVTVSS
VL: QSVLTQPPSASGTPGQRVTISCSGSSSNIGSNNVSWYQQLPGTAPKLLIYYNSHRPSGVPDRFSGSKSGTSASLAISGLRSEDEADYYCATWDSSLNGYVFGGGTKLTVL
notes: Expressed in the E. coli periplasm and partially purified on Ni-NTA; also called anti-VEGF-C scFv antibody

IC50 [4]: 9.2 nM
B2: SAIT-VEGFC-AB-4A2, anti-VEGF-C antibody in IgG form purified in Example 6 (antibody, V domains shown)
VH: B1 VH
VL: QSVLTQPPSASGTPGQRVTISCSGSSSNIGSNNVSWYQQLPGTAPKLLIYYNSHRPSGVPDRFSGSKSGTSASLAISGLRSEDEADYYCATWDSSLNGYVFGGGTKLT
notes: VH was cloned into pOPTI-VAC, which carries the human IgG1 constant region and Fc; Expressed in 293-F cells and purified on Protein A
